# Assay: yeast display, Sf9 membrane polyspecificity reagent, FACS + sequencing; frameworks hold sequencing errors
# Summary of the method: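 In a synthetic yeast display library (Saccharomyces cerevisiae BJ5465), nanobody expression was induced with galactose for 36–48 hours. FACS gates were set low and high (top ~1%) using anti-HA fluorescence for expression and streptavidin fluorescence for binding of the Sf9 membrane reagent. Each polyreactivity label is drawn from the gate of origin.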
row,Sequence,polyreactivity (PSR sort gate)
1,QVQLVESGGGLVQAGGSLRLSCAASGFIFPPYAMGWYRQAPGTERELVAAIRISGGSTYYADSVKGRFTISRDNAKNTVYFHLNSLKPEDTAVYYCAARYVSSTPAFAYYYWGQGTQVTVSS,high polyreactivity
2,QVQLVESGGGLVQAGGSLRLSCAATGRSFVLNAMGWYRQAAGKERELVATINYSGSSTYYADSVKGRFTISRDNAKNTVYLQMNSLKPEDTAVYYCNRDVPYRLVYYANYYWGHGTQVTVSS,low polyreactivity
3,QVQLVESGGGLVQAGGSLRLSCAASGIIFQGNAMGWYRQAPGKERELVAVITSRGGSTYYADSVKGRFTISRDNAKNTVYLQMNSLLPEDTAVYYCAKAKRYPQYYYWGQGTQVTVSS,high polyreactivity
4,QVQLVESGGGLVQAGGSLRLSCAASGRTFYGYALGWYRQAPGKERELVAAISDDASTYYADSVKGRFTISRDNAKNTVYLQMNSLKPEDTAVYYCAAEPEWPYGRFDYWGQGTQVTVSS,high polyreactivity
5,QVQLVESGGGLVQAGGSLRLSCAASGFTFRRYDMGWYRQAPGKERELVAAITASGGNTYYADSVKGRFTISRDNAKNTVYLQMNSLKPEDTAVYYCAARQYRYKYDYWGQGTQVTVSS,high polyreactivity
6,QVQLVESGGGLVQAGGSLRLSCAASGLTFHPYAMGWYRQAPGKERELVAAISSRGTSTYYADSVKGRFTISRDNAKNTVYLQMNSLKPEDTAVYYCAARYRLYYYFRFDWGQGTQVTVSS,high polyreactivity
7,QVQLVESGGGLVQAGGSLRLSCAASGIIFGKNAMGWYRQAPGKERELVAAISRRGGGTYYADSVKGRFTISRDNAKNTVYLQMNSLKPEDTAVYYCAVKVGYVRLLYHYYYWGQGTQVTVSS,high polyreactivity
8,QVQLVESGGGLVHAGGSLRLSCAASGSTFKYYAMGWYRQAPGKERELVAAISSGNSTYYADSVKGRFTISRDNAKNTVYLQMNSLKPEDTAVYYCAAYWRRDPMDYWGQGTQVTVSS,high polyreactivity
9,QVQLVESGGGLVQAGGSLRLSCASSGSIFTINAMGWYRQAPGKERELVAAIPYSGGFTYYADSVKGRFTISRDNAKNTVYLQMNSLKPEDTAVYYCAAVRGYPSRITSYVYTYGYWGQGTQVTVSS,low polyreactivity
10,QVQLVESGGGLVQAGGSLRLRCAASGRIFTRNDIGWYRQAPGKERQLVAAISHSGGSTYADSVKGSFTISRDNAKNTVFLQMNRLKPEDTEVYYCAADSPYGYYEGDYWGQGTQVTVSS,low polyreactivity
11,QVQLVESGGGIVQAGGSLRLSCAASGSTFTLYAMGWYRQAPGQERELVAAITSDDSTYYADSVKGRFTISRDNAKNTVYLQMNSLKPEDTAVYYCAADVYYGDYEMDYWGQGTQVTVSS,low polyreactivity
12,QVQLVESGGGLVQAGGSLRLSCAASGRIFEHYAMGWYRQAPGKERELVASISSGDRTNYADSVKGRFTISRDNAKNTVYLQMNSLKPEDTAVYYCNALQLYGKGKRVGFGYWGQGTQVTVSS,low polyreactivity
13,QVQLVESGGGLVQAGGSLRLSCAASGSTFDWYTMGWYRQAPGKERELVAAISSGGRTYYADSVKGRFTISRDNAKNTVYLQMNSLKPEDTAVYYCAVAWRVGITKYGYWGQGTQVTVSS,high polyreactivity
14,QVQLVESGGCLVQAGGSLRLSCAASGRTYQNNAMGWYRQAPGKERELVAAISRSGASTYYADSVKGRFTISRDNAKNTVYLQMNSLKPEDTAVYYCAARYPRTAYDYWGQGTQVTVSS,low polyreactivity
15,QVQLVESGGGLVQARGSLRLSCAASGSIFPNYAMGWYRQAPGKERELVAAISSSGGRTYYADSVKGRFTSSRDNAKNTVYLQMNRLKPEDTAVYYCAVRGYWGEGTQVTVSS,low polyreactivity
16,QVQLVESGGGLVQAGGSLRLSCAASGLTFPPNAMGWYRQAPGKEREFVAVISSGGGSTYYADSVKGRFTISRDNAKNTVYLQMNSLKPEDTAVYYCNTYYWYSGSPYDYWGQGTQVTVSS,low polyreactivity
17,QVQLVESGGGLVQAGGSLRLSCAASGSILGYYAMGWYRQAPGKERELVAAITASGGSTYYADSVKGRFTISRDNAKNTVYLQMNSLKPEDTAVYYCAARRIAPYGRYDYWGQGTQVTVSS,low polyreactivity
18,QVQLVESGGGLVQAGGSLRLSCAASGRTFGWNAMGWSRQAPGKERELVAAISRTGNTYYADSVKGRFTISRDNAKNTVYLQMNSLKPEDTAVYYCAKGRYYTPTYFRGVDLYDYWGQGTQVTVSS,low polyreactivity
19,QVQLVESGGGLVQAGGSLRLSCAASGYTFRYYAMGWYRQAPGKDRELVAVISSGGSTKYADSVKGRFTNSRDNAKNTVYLQMNSLKPEDTAVYYCAARYRSLYNYWGQGTQVTVSS,high polyreactivity
20,QVNLEESGGGLVQAGVILRLSSAASGSIFYRNAMGWYRQAPGKEREWVAAISSGGSTYYADSVKGRFTISRDNAKNTVYLQMNSLKPEETAVYYCAKDAHIWGYRDYEYWGLGTQVTVSS,high polyreactivity
21,QVHLVESGGGLVQAGGSLRLSCAASGSTLVIYAMGWYRQAPGKERELVAVITWSGGSTYYADSVKGRFTISRDNAKNTVYLQMNSLKPEDTAVYYCAKRPIVRQRSYYYWGQGTQVTVSS,low polyreactivity
22,QVQLQESGGGLVQAGGTLRLSCAASGTISFTRDMGWYRQAPGKEREFVASIDRGASTYYADSVKGRFTISRDNAKNTVYLQMNSLKPEDNAVYYRAVIAPFYSSFAYWGQGTQVTVSS,high polyreactivity

row,Sequence,polyreactivity (PSR sort gate)
1,QVQLVESGGGLVQAGGSLRLSCAASGLIFRPYTMGWYRPAPGKERELVATISGSGASTNYADSVKGRFTISRDNAKNTVYLQMNSLKPEDTAVYYCKGRSYSRMYYWGQGTQVTVSS,high polyreactivity
2,QVQLVESGGGLVQAGGSLRLSCAASGITFRRNAMGWYRQAPGKERELVAAISLSGTRTYYADSVKGRFTISRDNAKNTVYLQMNSLKPEDTAVYYCAASYYNKFDYWGQGTQVTVSS,high polyreactivity
3,QVQLVESGGGLVQAGGSLRLICAASGSIFAYNAMGWYRQAPGKERELVAAITDSGGSTFYADSVKGRFTISRDNAKNTVYLQMNSLKPEDTAVYYCATSGDRLVWGQGTQVTVSS,low polyreactivity
4,QVQLLESGGGLVQAGGSLRLSCAASGSIFRANAMGWYRQAPGKERELVAAITNGGRTNYADSVKGRFTISRDNAKNTVYLQMNSLKPEDTAVYYCAKDIYQHAKRRYDYWGQGTQVTVSS,low polyreactivity
5,QVQLVESGGGLVQAGGSLRLSSAASGITFYWYAMGWYRQAPGKERELVAASTRSVGSTYYADSVNGRFTISRDNAKNTVYLQMNSLKPEDTAVYYCAADFYYYGFDYWGQGTQVTVSS,low polyreactivity
6,QVQLVDSGGGLVQAGGSLRLSCAASGITFKRYAMGWYRQAPGKERELVAAITGIGGSTYYADSVKGRFTISSDNAKNTVYLQMNSLKPEDTAVYYCAARNNKKYDYWGQGTQVTVSS,high polyreactivity
7,QVQLQESGGGLLLAGGSLRLSCSASGNISVYGSMGWYRQAPGKEREFVATIDPGTNTNYADSVKDRFTISRDNAKNTVYLQMNSLKPEDTAVYYCAVEAGSDWPYRYWGQGTQVTVSS,low polyreactivity
8,QVQLVESGGGLVQAGGSLRLICAASGRIFGYYVMGWSRQSPGKERQLVAAIRSSADSTYYADSVKGRFTISRDNAKNTVYLQMNSLKPEDTAVYYCAAQSPAYYTKSYWGQGTQVTVSS,low polyreactivity
9,QVQLVESCGGLVQAGGSLRLSCAASGGTIVFYAMGWYRQAPGKERELVAAISSSGGSTYYADSVKGRFTISRDNAKNTVYLQMNSLKPEDTAVYYCNTPSYSGSSPYDHWGQGTQVTVSS,high polyreactivity
10,QVQLVESGGGLVQAGGSLRLSCAASGSTFFWYAMGWYRQEPGKERELVAAINWRGDRTYYADSVKGRFTISRDNAKNTVYLQMNSLKPEDTAVYYCNAVRVHAYSTGEYGYWGQGTQVTVSS,high polyreactivity
11,QVQLVESGGGLVQAGGSLRLSCAASGRIFWYYVMGWSRQAPGKEREFVASISSGGSTYYADSVKGRFTISRDNAKNTVYLQMNSLKPEDTAVYYCNAYVYGQRVWYDYWGQGTQVTVSS,high polyreactivity
12,QVQLVESGGGLVQAGGSLRLSCAASGSTFYNNAMGWYRQAPGKERELVATISASSTSTYYADSVKGRFTISRDNAKNTVYLQMNSLKPEDTAVYYCAKDYVHGSTYGYYWYGYDYWAQGTQVTVSS,low polyreactivity
13,QVQLVESGGGLVQAGGSLRLSCAASGSIFVTYAMGWYRQAPGKERELVASISWRGVSTRYADSVKGRFTISRDNAKNTVYLQMNSLKPEDTAVYYCAARVTSHMYYWGQGTQVTVSS,high polyreactivity
14,QVQLVESGGGLVQAGGSLRLSCAASGRITFSHNTMGWYRQAPGKERELVAAISSGGRTNYADSVKGRFTISRDNAKNTVYLQMNSLKPEDTGVYYCARESHYDFIYDGMDYWGQGTQVTVSS,low polyreactivity
15,QVQLVESGGRLVQAGVILRLSCAASGSTFAPYAMGWYRQSPGKESELVATISASGGTTYYADSVKGRFTISRDNAKNTVYLQMNSLKPEDTAVYYCNADSNWYDQWNYYGLNDYWGQGTQVTVSS,low polyreactivity
16,QVQLVESGGGLVQAGGSLRLSCAASGGTFGRYAMGWYRQAPGKERELVASITTGGRTNYADSVKGRFTISRDNAKNTVYLQMNSLKPEDTAVYYCAKKRYGYPVPFYYWGQGTQVTVSS,high polyreactivity
17,QVQLVESGGGLVQAGGSLRLSCAASGRTFPRYAMGWYRQAPGKERELVAGISWSGGRTYYADSVKGRFTISRDNAKNTVYLQMNSLKPEDTAVYYCAVVSKNLSYRTTFYYWGQGTQVTVSS,high polyreactivity
18,QVQLVESGGALVQAGVSLRLSCSASGSTFTKYAIRWYRQAPGKERELVAAITRGGSTTYADSVKGRFTISRDNAKNTVYLQMNSLKPEDTAVYFCNAQYQSGYYTSYPERFDYRGQGTQVTVSS,low polyreactivity
19,QVQLVESGGGLVQAGGSLRLSCAASGRIFYGYAMGWYRQAPGKERELVAAISSSGGSTYYADSVKGRFTISRDNAKNTVYLQMNSLKPEDTAVYYCNAQRYRPGYWYDYWGQGTQVTVSS,high polyreactivity
20,QVQLVESGGGLVQAGGSLRLSCAASGLTFGVYAMGWYRPAPGKERELVAAITATGGSTYYADSVKGRFTISRDNAKNTVYLQMNSLKPEDTAVYYCAKPDFYRMGYWGQGTQVTVSS,low polyreactivity
21,QVQLVESGGGLVQAGGSLRLSCAASGRIFSGNAMGWYRQAPGKERELVAAISRGGSTDYADSVKGRFTISRDNAKNTVYLQMNSLKPEDTAVYYCAARVNGKRRRYDYWGQGTQVTVSS,high polyreactivity
